US20060003330A1, “Streptococcus pneumoniae pbp2x mini-protein and uses thereof” (COMMISSARIAT A L'ENERGIE ATOMIQUE CENTRE NATIONAL DE LA …, priority 2002, published 2006)

Test: Solubility of purified mini-PBP2x (concentration without precipitating)
Format: physicochemical
Conditions: purified protein

B1: Mini-PBP2x: Modified recombinant protein derived from PBP2x of β-lactam-sensitive S. pneumoniae strain R6, with deletions in the n-PB domain replaced by Gly linkers (protein, listed as Streptococcus pneumoniae)
chain: GSGAKRGTIYDRNGVPIAEDATSGGPNRSYPNGQFASSFIGGGMESSLNSILAGGGGDGKDVYTTISSPLQSFMETQMDAFQEKVKGKYMTATLVSAKTGEILATTQRPTFDADTKEGITEDFVWRDILYQSNYEPGSTMKVMMLAAAIDNNTFPGGEVFNSSELKIADATIRDWDVNEGLTGGRTMTFSQGFAHSSNVGMTLLEQKMGDATWLDYLNRFKFGVPTRFGLTDEYAGQLPADNIVNIAQSSFGQGISVTQTQMIRAFTAIANDGVMLEPKFISAIYDPNDQTARKSQKEIVGNPVSKDAASLTRTNMVLVGTDPVYGTMYNHSTGKPTVTVPGQNVALKSGTAQIADEKNGGYLVGLTDYIFSAVSMSPAENPDFILYVTVQQPEHYSGIQLGEFANPILERASAMKDSLNLQTTAKALEQVSQQSPYPMPSVKDISPGDLAEELRRNLVQPIVVGTGTKIKNSSAEEGKNLAPNQQVLILSDKAEEVPDMYGWTKETAETLAKWLNIELEFQGSGSTVQKQDVRANTAIKDIKKITLTLGD
solubility (can be concentrated without precipitating): ≥ 15 mg/mL
